Measurements published in US20210388105A1 (ELPISCIENCE SUZHOU BIOPHARMA, published 2021).

Tests used:
Assay in all cases: FACS, mutant-EGFP on HEK293F cells
[1] = target: T1, KW27-5 (human CD39 mutant, C-terminal EGFP) (human, UniProt P49961 1-510)
T1 construct: expressed on HEK293F cells; not shown: C-terminal EGFP fusion (vector pCMV3-GFPSpark)
T1 chain: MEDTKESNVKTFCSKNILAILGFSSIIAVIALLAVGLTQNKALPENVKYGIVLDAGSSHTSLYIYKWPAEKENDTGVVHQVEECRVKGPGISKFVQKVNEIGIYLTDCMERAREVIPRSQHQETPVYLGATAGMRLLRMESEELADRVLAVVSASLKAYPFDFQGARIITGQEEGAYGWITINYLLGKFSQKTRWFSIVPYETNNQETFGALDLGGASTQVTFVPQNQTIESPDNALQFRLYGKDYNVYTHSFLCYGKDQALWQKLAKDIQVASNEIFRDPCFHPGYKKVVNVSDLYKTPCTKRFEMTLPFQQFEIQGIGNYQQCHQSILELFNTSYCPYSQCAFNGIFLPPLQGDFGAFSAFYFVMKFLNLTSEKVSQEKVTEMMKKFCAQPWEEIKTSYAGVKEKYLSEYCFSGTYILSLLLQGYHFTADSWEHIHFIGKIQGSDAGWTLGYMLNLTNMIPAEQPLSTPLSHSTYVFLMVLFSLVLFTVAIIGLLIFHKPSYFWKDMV
Experimental: (§1) Briefly, the human CD39 mutants were generated by gene synthesis and then cloned into an expression vector pCMV3-GFPSpark. The vectors containing the validated mutated sequences were prepared and transfected into HEK293F cells. Three days post transfection, the cells were collected to testing EGFP for transgene expression. A range of dosages of antibodies (start from 100 nM, 3-folds dilution, 11 points) were tested on the 20 generated mutants and stained by AlexFluor647 labelled anti-hIgG by FACS. Antibody binding was descripted as relative binding which is derived from AlexFluor647 intensity divided by GFP intensity.

[2] = target: T2, KW27-4 (human CD39 mutant, C-terminal EGFP) (human, UniProt P49961 1-510)
T2 construct: expressed on HEK293F cells; not shown: C-terminal EGFP fusion (vector pCMV3-GFPSpark)
T2 chain: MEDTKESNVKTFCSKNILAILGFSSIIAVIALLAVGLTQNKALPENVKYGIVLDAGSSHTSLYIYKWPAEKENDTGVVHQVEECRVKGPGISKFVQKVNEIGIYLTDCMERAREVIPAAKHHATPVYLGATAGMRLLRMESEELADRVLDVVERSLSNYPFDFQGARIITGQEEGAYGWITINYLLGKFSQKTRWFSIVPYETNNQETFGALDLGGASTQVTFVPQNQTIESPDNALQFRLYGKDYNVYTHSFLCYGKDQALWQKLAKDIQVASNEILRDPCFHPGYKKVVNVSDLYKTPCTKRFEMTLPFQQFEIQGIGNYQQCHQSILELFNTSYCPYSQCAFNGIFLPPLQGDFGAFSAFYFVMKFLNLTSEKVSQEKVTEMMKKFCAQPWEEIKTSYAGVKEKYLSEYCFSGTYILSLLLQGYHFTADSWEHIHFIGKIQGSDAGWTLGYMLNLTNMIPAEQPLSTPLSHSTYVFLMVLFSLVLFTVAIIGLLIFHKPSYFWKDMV
Experimental: as §1

[3] = target: T3, KW27-11 (human CD39 mutant, C-terminal EGFP) (human, UniProt P49961 1-510)
T3 construct: expressed on HEK293F cells; 'D3565' as printed is read as D356S; not shown: C-terminal EGFP fusion (vector pCMV3-GFPSpark)
T3 chain: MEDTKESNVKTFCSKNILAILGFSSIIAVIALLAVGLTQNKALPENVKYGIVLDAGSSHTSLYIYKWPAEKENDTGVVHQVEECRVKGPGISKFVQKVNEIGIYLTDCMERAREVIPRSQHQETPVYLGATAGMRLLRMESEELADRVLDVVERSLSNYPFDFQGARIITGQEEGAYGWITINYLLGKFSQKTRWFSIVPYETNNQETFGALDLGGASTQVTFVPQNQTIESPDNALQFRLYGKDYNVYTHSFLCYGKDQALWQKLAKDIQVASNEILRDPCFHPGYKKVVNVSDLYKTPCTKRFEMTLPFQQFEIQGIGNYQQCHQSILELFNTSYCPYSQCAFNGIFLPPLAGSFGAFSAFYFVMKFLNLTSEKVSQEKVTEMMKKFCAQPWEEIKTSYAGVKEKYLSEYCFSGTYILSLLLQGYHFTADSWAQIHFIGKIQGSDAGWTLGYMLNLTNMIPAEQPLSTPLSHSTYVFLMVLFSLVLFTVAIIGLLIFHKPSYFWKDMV
Experimental: as §1

[4] = target: T4, KW27-7 (human CD39 mutant, C-terminal EGFP) (human, UniProt P49961 1-510)
T4 construct: expressed on HEK293F cells; K188R and residues 190-206 substituted by KTPGGS; not shown: C-terminal EGFP fusion (vector pCMV3-GFPSpark)
T4 chain: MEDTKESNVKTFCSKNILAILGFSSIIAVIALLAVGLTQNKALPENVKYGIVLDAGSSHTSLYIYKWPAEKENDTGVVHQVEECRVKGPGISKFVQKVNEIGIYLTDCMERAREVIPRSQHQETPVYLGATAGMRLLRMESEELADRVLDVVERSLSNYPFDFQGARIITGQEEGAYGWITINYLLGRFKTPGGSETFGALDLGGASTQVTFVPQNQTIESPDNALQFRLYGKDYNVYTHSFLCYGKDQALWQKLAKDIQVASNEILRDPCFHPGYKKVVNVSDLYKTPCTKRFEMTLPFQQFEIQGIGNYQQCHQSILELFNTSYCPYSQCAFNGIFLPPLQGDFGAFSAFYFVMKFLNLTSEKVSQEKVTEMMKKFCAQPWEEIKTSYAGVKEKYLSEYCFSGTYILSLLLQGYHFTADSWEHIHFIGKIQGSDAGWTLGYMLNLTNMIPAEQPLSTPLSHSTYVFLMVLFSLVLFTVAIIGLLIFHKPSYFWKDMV
Experimental: as §1

Measured: binding result

B1: hu23.H5L5 (antibody, V domains shown)
VH: QVQLVQSGAEVKKPGASVKVSCKASGYNLKDTFLHWVRQAPGQGLEWMGRIDPANGNIKYDPKFQGRVTITADTSANTAYMELISLRSEDTAVYYCANSPYYYGSGYRIFDVWGQGTTVTVSS
VL: QIVLTQSPATLSLSPGERATLSCSAFSSVNYMHWYQQKPGQAPRLLIYTTSNLASGIPTRFSGSGSGTSYTLTISSLEPEDFAVYYCQQRSTYPFTFGQGTKLEIK
notes: humanized c23
binds: all assays above

B2: Antibody 9-8B (antibody, V domains shown)
VH: QIQLVQSGPELKKPGETVKISCKASGYTFTHYGMNWVKQAPGKGLKWMGWINTYTGELTYADDFKGRFAFSLETSASTAYLQINNLKNEDTATYFCARRAYYRYDYVMDYWGQGTSVTVSS
VL: DIVMTQSQKFMSTSVGDRVSVTCKASHNVGTNVAWYQQKPGQSPKALIYSASYRYSGVPGRFTGSGSGTDFTLTISNVQSEDLAEYFCHQYNNYPYTFGGGTKLEIK
binds: all assays above

B3: Antibody T895 (antibody, V domains shown)
VH: EVQLQQSGPELVKPGASVKMSCKASGYTFTDYNMHWVKQSHGRTLEWIGYIVPLNGGSTFNQKFKGRATLTVNTSSRTAYMELRSLTSEDSAAYYCARGGTRFAYWGQGTLVTVSA
VL: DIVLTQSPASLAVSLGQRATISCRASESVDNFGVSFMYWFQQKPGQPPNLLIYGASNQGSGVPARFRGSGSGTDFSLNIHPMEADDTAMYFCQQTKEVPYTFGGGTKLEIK
notes: also called 31895
binds: all assays above

B4: c34 (antibody, V domains shown)
VH: EIQVQQSGPELVKPGASVKVSCKASGYSFTDYNMYWVKQSHGKSLEWIGFIDPYNGYTSYNQKFKGKATLTIDKSSSTAFMHLNSLTSEDSAVYYCAIYGYDDAYYFDYWGQGTTLTVSS
VL: QIVLTQSPAIMSASPGEKVTITCSATSSVSYMHWFRQKPGTSPKLWIYSTSNLASGVPARFSGSGSGTSYSLTISRMAAEDAATYYCQQRITYPFTFGSGTKLEIT
notes: its making is not described; also called chimeric antibody c34
binds: all assays above

B5: c35 (antibody, V domains shown)
VH: EVRLQQSGAELVKPGASVKLSCTASGFNIEDTYVHWMKQRPEQGLEWIGRIDPAIDNSKYDPKFQGKATITAVSSSNTAYLQLSSLTSEDTAVYYCALYDGYNVYAMDYWGQGTSVTVSS
VL: DIVMTQAAFSNPVTLGTSASISCRSSKNLLHSNGITYLYWYLQRPGQSPQLLIYRASTLASGVPNRFSGSESGTDFTLRISRVEAEDVGVYYCAQLLELPHTFGGGTKLEIK
notes: its making is not described; also called chimeric antibody c35
binds: all assays above
